Consider two molecules from patent US20260258125A1 (NONA BIOSCIENCES SUZHOU, published 2026).

In assay [1] the target is T1, human CEACAM6 on 293T cells (293T-huCEACAM6 cells) (human, UniProt P40199 35-320).
T1 sequence (looked up): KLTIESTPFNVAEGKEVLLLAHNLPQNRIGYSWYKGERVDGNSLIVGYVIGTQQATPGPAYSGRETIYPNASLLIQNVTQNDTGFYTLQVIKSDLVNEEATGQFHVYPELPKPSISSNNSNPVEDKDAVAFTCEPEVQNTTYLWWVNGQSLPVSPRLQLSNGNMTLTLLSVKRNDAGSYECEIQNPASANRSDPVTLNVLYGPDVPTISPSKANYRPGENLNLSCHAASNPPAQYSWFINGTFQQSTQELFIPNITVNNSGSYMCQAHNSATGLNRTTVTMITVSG
Briefly: cell-based or functional assay.

The target in assay [2] is T2, human CEACAM3 protein (human, UniProt P40198 35-155).
T2 construct: Bought protein; also called huCEACAM3
T2 sequence (looked up): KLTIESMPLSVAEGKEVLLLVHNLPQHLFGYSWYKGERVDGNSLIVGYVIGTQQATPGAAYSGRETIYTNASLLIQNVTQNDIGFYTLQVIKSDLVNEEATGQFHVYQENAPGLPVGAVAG
Briefly: ELISA, antigen coated on plate. An excerpt:
(§1) Binding of recombinant anti-CEACAM5/6 dual-binding monoclonal antibodies against human and cynomolgus CEACAM5, and human CEACAM6 (Uniprot P40199), human CEACAM 1, 3 (NP_001806.2, Sino Biological 11933-H08H) and 8 (NP_001807.2, Acro Bio CE8-H5224) were detected by ELISA. Anti-CEACAM5/6 dual-antibodies were serially diluted in staining buffer (PBS containing 2% FBS). […] ELISA was used to test the binding between antibody containing supernatant or purified antibodies and the antigen. Briefly, the antigens were coated on a 96-well high binding plate overnight at 4° C. The plate was washed with PBST three times, incubated with blocking buffer (2% Bovine Serum Albumin) for one hour at 37° C., washed with PBST three times and incubated with antibody containing supernatant or purified antibodies at desired dilutions or concentrations for one hour at 37° C. A secondary antibody, anti-human Fc-HRP (Jackson Laboratory, 109-035-097) was used for detection of the targeted antibody. TMB and stopping solution were used for detection of HRP signal. The HRP signal was read on a SPECTRAMAX plate reader.

Assay [3] has as its target T3, human CEACAM6 protein (human, UniProt P40199 35-320).
T3 construct: also called huCEACAM6
T3 sequence (looked up): T1 sequence (looked up)
Briefly: ELISA, antigen coated on plate.
From the text: as §1

The target of assay [4] is T4, cyno CEACAM5 protein (cynomolgus monkey).
T4 construct: also called cynomolgus CEACAM5
Briefly: ELISA, antigen coated on plate.
From the text: as §1

For assay [5], the target named is T5, human CEACAM8 protein (human, UniProt P31997 35-320).
T5 construct: Bought protein; also called huCEACAM8
T5 sequence (looked up): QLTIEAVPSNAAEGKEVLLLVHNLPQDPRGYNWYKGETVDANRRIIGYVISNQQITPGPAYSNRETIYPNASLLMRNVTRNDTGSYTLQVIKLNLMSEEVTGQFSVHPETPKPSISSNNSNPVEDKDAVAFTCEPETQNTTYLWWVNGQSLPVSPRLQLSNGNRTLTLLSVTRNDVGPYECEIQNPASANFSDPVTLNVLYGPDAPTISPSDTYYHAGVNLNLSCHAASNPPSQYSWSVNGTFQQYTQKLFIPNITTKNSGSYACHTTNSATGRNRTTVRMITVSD
Briefly: ELISA, antigen coated on plate.
From the text: as §1

For assay [6], the target named is T6, human CEACAM1 protein (human, UniProt P13688 35-428).
T6 construct: also called huCEACAM1
T6 sequence (looked up): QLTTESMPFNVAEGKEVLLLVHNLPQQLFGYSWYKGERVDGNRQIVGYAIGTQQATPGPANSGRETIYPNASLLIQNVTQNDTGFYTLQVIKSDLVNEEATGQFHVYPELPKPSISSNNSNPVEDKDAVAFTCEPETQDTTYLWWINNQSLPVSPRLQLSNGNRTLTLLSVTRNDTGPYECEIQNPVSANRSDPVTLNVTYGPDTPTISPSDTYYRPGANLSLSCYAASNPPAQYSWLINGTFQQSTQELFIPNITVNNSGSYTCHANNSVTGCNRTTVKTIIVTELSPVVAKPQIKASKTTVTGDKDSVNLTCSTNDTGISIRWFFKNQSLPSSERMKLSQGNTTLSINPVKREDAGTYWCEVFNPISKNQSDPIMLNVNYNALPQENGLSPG
Briefly: ELISA, antigen coated on plate.
From the text: as §1

Assay [7] concerns the target T1, human CEACAM6 on 293T cells …. Briefly: flow cytometry on 293T-huCEACAM6 cells. The method, then: (§2) Binding of recombinant anti-CEACAM5/6 dual-binding antibodies against human or cynomolgus CEACAM5 or CEACAM6 stable cells were detected by flow cytometry. […] Anti-CEACAM5/6 dual-binding antibodies were incubated with the stable cell lines. Anti-CEACAM5/6 dual-binding antibodies were serially diluted in staining buffer (PBS containing 2% FBS). 50 μL of diluted antibody solution was added to 50 μL of cell suspension containing 1-2×10⁵ cells and incubated at 4° C. for 1 hour. […] After 1-hour incubation at 4° C., cells were washed twice and run on a flow cytometer. […] The results were shown in FIGS. 8-10 and Tables 6 below.

Assay [8] addresses T7, cynomolgus CEACAM5 on CHO-K1 cells (CHOK1-cyno CEACAM5 cells) (cynomolgus monkey).
T7 construct: whole, on cells; also called CHOK1-cynoCECAM5
Briefly: flow cytometry on CHOK1-cyno CEACAM5 cells. Here is the method: as §2

The target of assay [9] is T8, recombinant human CEACAM6 Fc-tag protein (human, UniProt P40199 35-320, limits assumed).
T8 construct: also called huCEACAM6 (Octet); not shown: Fc tag
T8 sequence (looked up): T1 sequence (looked up)
Briefly: Octet (BLI), antibody on AHC sensor, antigen in solution. The method, then:
Binding kinetics of recombinant anti-CEACAM5/6 antibodies to CEACAM5 and CEACAM6 were analyzed by Octet. In Octet analysis, recombinant human CEACAM5 Fc-tag protein (#Uniprot P06731) or CEACAM6 Fc-tag protein (Uniprot P40199) was serially diluted with 1×kinetic buffer (Fortebio). Anti-CEACAM5/6 dual-binding antibodies were diluted to 5 μg/mL. Then diluted antibodies, antigen and regeneration buffer (10 mM glycine pH 1.75) were added to 96-well plates (Greiner). Rate constants for association and dissociation were measured using AHC sensor (Fortebio). The sensor surface was regenerated after each binding experiment with regeneration buffer. The traces were processed using ForteBio Data Analysis Software (version 8.0, Pall ForteBio, CA, USA).

Assay [10] concerns the target T1, human CEACAM6 on 293T cells …. Briefly: flow cytometry on 293T-huCEACAM6 cells, Alexa Fluor 488 anti-human IgG, MFI. Here is the method: as §2
In assay [11] the target is T9, human CEACAM5 protein (human, UniProt P06731 35-685).
T9 construct: also called huCEACAM5
T9 sequence (looked up): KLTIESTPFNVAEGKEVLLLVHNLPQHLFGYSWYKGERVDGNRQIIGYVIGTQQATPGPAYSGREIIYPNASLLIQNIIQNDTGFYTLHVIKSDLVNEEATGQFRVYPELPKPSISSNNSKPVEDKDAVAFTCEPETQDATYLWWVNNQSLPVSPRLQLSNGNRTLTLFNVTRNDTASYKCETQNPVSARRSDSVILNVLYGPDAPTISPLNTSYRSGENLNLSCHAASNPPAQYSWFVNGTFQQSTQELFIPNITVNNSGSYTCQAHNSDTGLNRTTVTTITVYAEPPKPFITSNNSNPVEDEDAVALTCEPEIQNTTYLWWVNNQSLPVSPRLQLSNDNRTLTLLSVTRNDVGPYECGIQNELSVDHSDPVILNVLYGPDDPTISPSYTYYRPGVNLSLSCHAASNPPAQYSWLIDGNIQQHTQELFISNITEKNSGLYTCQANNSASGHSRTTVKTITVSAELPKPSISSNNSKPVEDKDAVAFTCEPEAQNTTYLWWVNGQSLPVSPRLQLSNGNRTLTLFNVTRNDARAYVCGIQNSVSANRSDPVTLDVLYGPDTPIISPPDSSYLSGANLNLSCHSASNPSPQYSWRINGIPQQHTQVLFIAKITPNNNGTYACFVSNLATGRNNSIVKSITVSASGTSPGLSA
Briefly: ELISA, antigen coated on plate.
From the text: as §1

Assay [12] addresses T1, human CEACAM6 on 293T cells …. Briefly: flow cytometry on 293T-huCEACAM6 cells with against without 100 nM soluble CEACAM6.

B1: PR303561 (Tusamitamab) (antibody, human IgG1, kappa, V domains shown)
VH: EVQLQESGPGLVKPGGSLSLSCAASGFVFSSYDMSWVRQTPERGLEWVAYISSGGGITYAPSTVKGRFTVSRDNAKNTLYLQMNSLTSEDTAVYYCAAHYFGSSGPFAYWGQGTLVTVSS
VL: DIQMTQSPASLSASVGDRVTITCRASENIFSYLAWYQQKPGKSPKLLVYNTRTLAEGVPSRFSGSGSGTDFSLTISSLQPEDFATYYCQHHYGTPFTFGSGTKLEIKR
notes: also called PR003561; SAR408377
In the case of B1, the “Internalization of pHAb-dye-labelled antibody, MFI (37° C.-4° C.)/DAR” value in assay [1] came out at 1260. Besides, the binding result in assay [2], in assay [3], in [5], in [6], in [7] and in assay [9] was “no binding” each time. The concentration for a half-maximal effect (EC50) amounted to 0.01 nM in [4] and 33.4 nM in [8].

B2: PR303563 (Tinurilimab) (antibody, human IgG2, kappa, V domains shown)
VH: QVTLRESGPALVKPTQTLTLTCTFSGFSLSTYGIGVGWIRQPPGKALEWLAHIWWNDNKYYSTSLKTRLTISKDTSKNQVVLTMTNMDPVDTATYYCARISLPYFDYWGQGTTLTVSS
VL: DIQLTQSPSFLSASVGDRVTITCKASQNVGTAVAWYQQKPGKAPKLLIYSASNRYTGVPSRFSGSGSGTEFTLTISSLQPEDFATYYCQQYSSYPLTFGGGTKVEIKR
notes: also called BAY-1834942
In the case of B2, in [10], the “EC50 (read off the curve)” value was approximately 0.6 nM. In addition, the binding result in assay [2], in [11], in assay [5] and in [6] was “no binding” each time. Moreover, a half-maximal response in [3] (EC50) required 0.01 nM. The “fold change of EC50 at the presence of 100 nM soluble protein” value in assay [12] was determined as 7.3 fold.
